Results from publication PMC6983858, “Biochemical and structural analyses reveal that the tumor suppressor neurofibromin (NF1) forms a high-affinity dimer” (The Journal of Biological Chemistry, 2019).

B1: neurofibromin CDEF fragment (861–2818) (domain or fragment, human, UniProt P21359-2 861-2818, looked up)
chain: ATYSPPMGPVSERKGSMISVMSSEGNADTPVSKFMDRLLSLMVCNHEKVGLQIRTNVKDLVGLELSPALYPMLFNKLKNTISKFFDSQGQVLLTDTNTQFVEQTIAIMKNLLDNHTEGSSEHLGQASIETMMLNLVRYVRVLGNMVHAIQIKTKLCQLVEVMMARRDDLSFCQEMKFRNKMVEYLTDWVMGTSNQAADDDVKCLTRDLDQASMEAVVSLLAGLPLQPEEGDGVELMEAKSQLFLKYFTLFMNLLNDCSEVEDESAQTGGRKRGMSRRLASLRHCTVLAMSNLLNANVDSGLMHSIGLGYHKDLQTRATFMEVLTKILQQGTEFDTLAETVLADRFERLVELVTMMGDQGELPIAMALANVVPCSQWDELARVLVTLFDSRHLLYQLLWNMFSKEVELADSMQTLFRGNSLASKIMTFCFKVYGATYLQKLLDPLLRIVITSSDWQHVSFEVDPTRLEPSESLEENQRNLLQMTEKFFHAIISSSSEFPPQLRSVCHCLYQVVSQRFPQNSIGAVGSAMFLRFINPAIVSPYEAGILDKKPPPRIERGLKLMSKILQSIANHVLFTKEEHMRPFNDFVKSNFDAARRFFLDIASDCPTSDAVNHSLSFISDGNVLALHRLLWNNQEKIGQYLSSNRDHKAVGRRPFDKMATLLAYLGPPEHKPVADTHWSSLNLTSSKFEEFMTRHQVHEKEEFKALKTLSIFYQAGTSKAGNPIFYYVARRFKTGQINGDLLIYHVLLTLKPYYAKPYEIVVDLTHTGPSNRFKTDFLSKWFVVFPGFAYDNVSAVYIYNCNSWVREYTKYHERLLTGLKGSKRLVFIDCPGKLAEHIEHEQQKLPAATLALEEDLKVFHNALKLAHKDTKVSIKVGSTAVQVTSAERTKVLGQSVFLNDIYYASEIEEICLVDENQFTLTIANQGTPLTFMHQECEAIVQSIIHIRTRWELSQPDSIPQHTKIRPKDVPGTLLNIALLNLGSSDPSLRSAAYNLLCALTCTFNLKIEGQLLETSGLCIPANNTLFIVSISKTLAANEPHLTLEFLEECISGFSKSSIELKHLCLEYMTPWLSNLVRFCKHNDDAKRQRVTAILDKLITMTINEKQMYPSIQAKIWGSLGQITDLLDVVLDSFIKTSATGGLGSIKAEVMADTAVALASGNVKLVSSKVIGRMCKIIDKTCLSPTPTLEQHLMWDDIAILARYMLMLSFNNSLDVAAHLPYLFHVVTFLVATGPLSLRASTHGLVINIIHSLCTCSQLHFSEETKQVLRLSLTEFSLPKFYLLFGISKVKSAAVIAFRSSYRDRSFSPGSYERETFALTSLETVTEALLEIMEACMRDIPTCKWLDQWTELAQRFAFQYNPSLQPRALVVFGCISKRVSHGQIKQIIRILSKALESCLKGPDTYNSQVLIEATVIALTKLQPLLNKDSPLHKALFWVAVAVLQLDEVNLYSAGTALLEQNLHTLDSLRIFNDKSPEEVFMAIRNPLEWHCKQMDHFVGLNFNSNFNFALVGHLLKGYRHPSPAIVARTVRILHTLLTLVNKHRNCDKFEVNTQSVAYLAALLTVSEEVRSRCSLKHRKSLLLTDISMENVPMDTYPIHHGDPSYRTLKETQPWSSPKGSEGYLAATYPTVGQTSPRARKSMSLDMGQPSQANTKKLLGTRKSFDHLISDTKAPKRQEMESGITTPPKMRRVAETDYEMETQRISSSQQHPHLRKVSVSESNVLLDEEVLTDPKIQALLLTVLATLVKYTTDEFDQRILYEYLAEASVVFPKVFPVVHNLLDSKINTLLSLCQDPNLLNPIHGIVQSVVYHEESPPQYQTSYLQSFGFNGLWRFAGPFSKQTQIPDYAELIVKFLDALIDTYLPGIDEETSEESLLTPTSPYPPALQSQLSITANLNLSNSMTSLATSQHSPGIDKENVELSPTTGHCNSGRTRHGSASQVQKQRSAGSFKRNSIKKIV
notes: neurofibromin, human, NF1 isoform 2 (NM_000267.3); residues 861-2818; numbers count on: the 2818-residue isoform; TEV cleavage (ENLYFQ/G) probably leaves a G at the N-terminus; also called NF1-CDEF; NF1(861–2818); source: Tni-FNL insect cells (baculovirus), purified; not shown: His6, N-terminal, cleaved; MBP, N-terminal, cleaved
B2: neurofibromin C*D domain (1085–1816) (domain or fragment, human, UniProt P21359-2 1085-1816, looked up)
chain: LQPEEGDGVELMEAKSQLFLKYFTLFMNLLNDCSEVEDESAQTGGRKRGMSRRLASLRHCTVLAMSNLLNANVDSGLMHSIGLGYHKDLQTRATFMEVLTKILQQGTEFDTLAETVLADRFERLVELVTMMGDQGELPIAMALANVVPCSQWDELARVLVTLFDSRHLLYQLLWNMFSKEVELADSMQTLFRGNSLASKIMTFCFKVYGATYLQKLLDPLLRIVITSSDWQHVSFEVDPTRLEPSESLEENQRNLLQMTEKFFHAIISSSSEFPPQLRSVCHCLYQVVSQRFPQNSIGAVGSAMFLRFINPAIVSPYEAGILDKKPPPRIERGLKLMSKILQSIANHVLFTKEEHMRPFNDFVKSNFDAARRFFLDIASDCPTSDAVNHSLSFISDGNVLALHRLLWNNQEKIGQYLSSNRDHKAVGRRPFDKMATLLAYLGPPEHKPVADTHWSSLNLTSSKFEEFMTRHQVHEKEEFKALKTLSIFYQAGTSKAGNPIFYYVARRFKTGQINGDLLIYHVLLTLKPYYAKPYEIVVDLTHTGPSNRFKTDFLSKWFVVFPGFAYDNVSAVYIYNCNSWVREYTKYHERLLTGLKGSKRLVFIDCPGKLAEHIEHEQQKLPAATLALEEDLKVFHNALKLAHKDTKVSIKVGSTAVQVTSAERTKVLGQSVFLNDIYYASEIEEICLVDENQFTLTIANQGTPLTFMHQECEAIVQSIIHIRTRWELSQPD
notes: neurofibromin, human, NF1 isoform 2 (NM_000267.3); numbers count on: the 2818-residue isoform; TEV cleavage (ENLYFQ/G) probably leaves a G at the N-terminus; also called CD domains; source: Tni-FNL insect cells (baculovirus), purified; not shown: His6, N-terminal, cleaved; MBP, N-terminal, cleaved
B3: neurofibromin C* domain (1085–1530) (domain or fragment, human, UniProt P21359-2 1085-1530, looked up)
chain: LQPEEGDGVELMEAKSQLFLKYFTLFMNLLNDCSEVEDESAQTGGRKRGMSRRLASLRHCTVLAMSNLLNANVDSGLMHSIGLGYHKDLQTRATFMEVLTKILQQGTEFDTLAETVLADRFERLVELVTMMGDQGELPIAMALANVVPCSQWDELARVLVTLFDSRHLLYQLLWNMFSKEVELADSMQTLFRGNSLASKIMTFCFKVYGATYLQKLLDPLLRIVITSSDWQHVSFEVDPTRLEPSESLEENQRNLLQMTEKFFHAIISSSSEFPPQLRSVCHCLYQVVSQRFPQNSIGAVGSAMFLRFINPAIVSPYEAGILDKKPPPRIERGLKLMSKILQSIANHVLFTKEEHMRPFNDFVKSNFDAARRFFLDIASDCPTSDAVNHSLSFISDGNVLALHRLLWNNQEKIGQYLSSNRDHKAVGRRPFDKMATLLAYLGPPEH
notes: neurofibromin, human, NF1 isoform 2 (NM_000267.3); numbers count on: the 2818-residue isoform; TEV cleavage (ENLYFQ/G) probably leaves a G at the N-terminus; source: Tni-FNL insect cells (baculovirus), purified; not shown: His6, N-terminal, cleaved; MBP, N-terminal, cleaved
B4: neurofibromin DEF fragment (1541–2818) (domain or fragment, human, UniProt P21359-2 1541-2818, looked up)
chain: LNLTSSKFEEFMTRHQVHEKEEFKALKTLSIFYQAGTSKAGNPIFYYVARRFKTGQINGDLLIYHVLLTLKPYYAKPYEIVVDLTHTGPSNRFKTDFLSKWFVVFPGFAYDNVSAVYIYNCNSWVREYTKYHERLLTGLKGSKRLVFIDCPGKLAEHIEHEQQKLPAATLALEEDLKVFHNALKLAHKDTKVSIKVGSTAVQVTSAERTKVLGQSVFLNDIYYASEIEEICLVDENQFTLTIANQGTPLTFMHQECEAIVQSIIHIRTRWELSQPDSIPQHTKIRPKDVPGTLLNIALLNLGSSDPSLRSAAYNLLCALTCTFNLKIEGQLLETSGLCIPANNTLFIVSISKTLAANEPHLTLEFLEECISGFSKSSIELKHLCLEYMTPWLSNLVRFCKHNDDAKRQRVTAILDKLITMTINEKQMYPSIQAKIWGSLGQITDLLDVVLDSFIKTSATGGLGSIKAEVMADTAVALASGNVKLVSSKVIGRMCKIIDKTCLSPTPTLEQHLMWDDIAILARYMLMLSFNNSLDVAAHLPYLFHVVTFLVATGPLSLRASTHGLVINIIHSLCTCSQLHFSEETKQVLRLSLTEFSLPKFYLLFGISKVKSAAVIAFRSSYRDRSFSPGSYERETFALTSLETVTEALLEIMEACMRDIPTCKWLDQWTELAQRFAFQYNPSLQPRALVVFGCISKRVSHGQIKQIIRILSKALESCLKGPDTYNSQVLIEATVIALTKLQPLLNKDSPLHKALFWVAVAVLQLDEVNLYSAGTALLEQNLHTLDSLRIFNDKSPEEVFMAIRNPLEWHCKQMDHFVGLNFNSNFNFALVGHLLKGYRHPSPAIVARTVRILHTLLTLVNKHRNCDKFEVNTQSVAYLAALLTVSEEVRSRCSLKHRKSLLLTDISMENVPMDTYPIHHGDPSYRTLKETQPWSSPKGSEGYLAATYPTVGQTSPRARKSMSLDMGQPSQANTKKLLGTRKSFDHLISDTKAPKRQEMESGITTPPKMRRVAETDYEMETQRISSSQQHPHLRKVSVSESNVLLDEEVLTDPKIQALLLTVLATLVKYTTDEFDQRILYEYLAEASVVFPKVFPVVHNLLDSKINTLLSLCQDPNLLNPIHGIVQSVVYHEESPPQYQTSYLQSFGFNGLWRFAGPFSKQTQIPDYAELIVKFLDALIDTYLPGIDEETSEESLLTPTSPYPPALQSQLSITANLNLSNSMTSLATSQHSPGIDKENVELSPTTGHCNSGRTRHGSASQVQKQRSAGSFKRNSIKKIV
notes: neurofibromin, human, NF1 isoform 2 (NM_000267.3); numbers count on: the 2818-residue isoform; TEV cleavage (ENLYFQ/G) probably leaves a G at the N-terminus; also called NF1-DEF; source: Tni-FNL insect cells (baculovirus), purified; not shown: His6, N-terminal, cleaved; MBP, N-terminal, cleaved

Experiments:
[1] = target: the molecule itself; test: AUC; sedimentation velocity of CDEF, 2.2 to 8.8 μM, 40,000 rpm, 20 °C, 300 mM NaCl, 20 mM HEPES-NaOH pH 7.3, 5 mM TCEP
[2] = target: T1, neurofibromin EF fragment (1821–2818) (human, UniProt P21359-2 1821-2818); test: SEC; equimolar mixtures of two purified NF1 fragments on an analytical SEC column, fractions analysed by SDS-PAGE; settings: both partners purified
T1 construct: neurofibromin, human, NF1 isoform 2 (NM_000267.3); residues 1821-2818; numbers count on: the 2818-residue isoform; TEV cleavage (ENLYFQ/G) probably leaves a G at the N-terminus; also called EF domain; EF(1821–2818); source: Tni-FNL insect cells (baculovirus), purified; not shown: His6, N-terminal, cleaved; MBP, N-terminal, cleaved
T1 sequence (looked up): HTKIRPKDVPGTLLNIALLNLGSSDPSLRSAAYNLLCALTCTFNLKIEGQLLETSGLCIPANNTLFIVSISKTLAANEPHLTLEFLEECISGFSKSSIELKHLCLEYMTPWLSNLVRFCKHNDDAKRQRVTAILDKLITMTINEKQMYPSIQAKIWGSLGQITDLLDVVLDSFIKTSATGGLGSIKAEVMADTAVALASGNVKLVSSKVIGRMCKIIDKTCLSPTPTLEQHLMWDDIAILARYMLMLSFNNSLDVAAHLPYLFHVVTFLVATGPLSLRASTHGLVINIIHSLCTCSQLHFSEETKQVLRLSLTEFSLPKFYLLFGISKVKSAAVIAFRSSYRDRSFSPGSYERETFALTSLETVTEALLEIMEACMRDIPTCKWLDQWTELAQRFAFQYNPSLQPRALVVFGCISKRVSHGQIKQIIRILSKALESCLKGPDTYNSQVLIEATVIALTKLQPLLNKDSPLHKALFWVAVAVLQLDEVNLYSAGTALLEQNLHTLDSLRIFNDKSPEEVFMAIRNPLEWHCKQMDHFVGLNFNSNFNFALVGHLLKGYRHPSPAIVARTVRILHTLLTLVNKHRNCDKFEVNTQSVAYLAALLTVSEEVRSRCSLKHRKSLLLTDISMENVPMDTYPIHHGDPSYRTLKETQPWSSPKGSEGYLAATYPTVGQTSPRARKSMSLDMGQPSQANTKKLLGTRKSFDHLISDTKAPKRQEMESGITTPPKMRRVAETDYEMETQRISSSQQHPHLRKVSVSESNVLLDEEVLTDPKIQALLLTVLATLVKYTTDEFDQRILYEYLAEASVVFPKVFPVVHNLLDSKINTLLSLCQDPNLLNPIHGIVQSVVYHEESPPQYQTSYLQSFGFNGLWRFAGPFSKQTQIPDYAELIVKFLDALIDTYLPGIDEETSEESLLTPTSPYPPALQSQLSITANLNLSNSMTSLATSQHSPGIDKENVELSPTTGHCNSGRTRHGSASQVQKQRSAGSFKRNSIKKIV

[3] = target: T2, neurofibromin ABC fragment (2–1540) (human, UniProt P21359-2 2-1540); test: as above; settings: both partners purified
T2 construct: neurofibromin, human, NF1 isoform 2 (NM_000267.3); numbers count on: the 2818-residue isoform; TEV cleavage (ENLYFQ/G) probably leaves a G at the N-terminus; also called NF1-ABC; source: Tni-FNL insect cells (baculovirus), purified; not shown: His6, N-terminal, cleaved; MBP, N-terminal, cleaved
T2 sequence (P21359 other isoform, or with tags, fused parts or gaps): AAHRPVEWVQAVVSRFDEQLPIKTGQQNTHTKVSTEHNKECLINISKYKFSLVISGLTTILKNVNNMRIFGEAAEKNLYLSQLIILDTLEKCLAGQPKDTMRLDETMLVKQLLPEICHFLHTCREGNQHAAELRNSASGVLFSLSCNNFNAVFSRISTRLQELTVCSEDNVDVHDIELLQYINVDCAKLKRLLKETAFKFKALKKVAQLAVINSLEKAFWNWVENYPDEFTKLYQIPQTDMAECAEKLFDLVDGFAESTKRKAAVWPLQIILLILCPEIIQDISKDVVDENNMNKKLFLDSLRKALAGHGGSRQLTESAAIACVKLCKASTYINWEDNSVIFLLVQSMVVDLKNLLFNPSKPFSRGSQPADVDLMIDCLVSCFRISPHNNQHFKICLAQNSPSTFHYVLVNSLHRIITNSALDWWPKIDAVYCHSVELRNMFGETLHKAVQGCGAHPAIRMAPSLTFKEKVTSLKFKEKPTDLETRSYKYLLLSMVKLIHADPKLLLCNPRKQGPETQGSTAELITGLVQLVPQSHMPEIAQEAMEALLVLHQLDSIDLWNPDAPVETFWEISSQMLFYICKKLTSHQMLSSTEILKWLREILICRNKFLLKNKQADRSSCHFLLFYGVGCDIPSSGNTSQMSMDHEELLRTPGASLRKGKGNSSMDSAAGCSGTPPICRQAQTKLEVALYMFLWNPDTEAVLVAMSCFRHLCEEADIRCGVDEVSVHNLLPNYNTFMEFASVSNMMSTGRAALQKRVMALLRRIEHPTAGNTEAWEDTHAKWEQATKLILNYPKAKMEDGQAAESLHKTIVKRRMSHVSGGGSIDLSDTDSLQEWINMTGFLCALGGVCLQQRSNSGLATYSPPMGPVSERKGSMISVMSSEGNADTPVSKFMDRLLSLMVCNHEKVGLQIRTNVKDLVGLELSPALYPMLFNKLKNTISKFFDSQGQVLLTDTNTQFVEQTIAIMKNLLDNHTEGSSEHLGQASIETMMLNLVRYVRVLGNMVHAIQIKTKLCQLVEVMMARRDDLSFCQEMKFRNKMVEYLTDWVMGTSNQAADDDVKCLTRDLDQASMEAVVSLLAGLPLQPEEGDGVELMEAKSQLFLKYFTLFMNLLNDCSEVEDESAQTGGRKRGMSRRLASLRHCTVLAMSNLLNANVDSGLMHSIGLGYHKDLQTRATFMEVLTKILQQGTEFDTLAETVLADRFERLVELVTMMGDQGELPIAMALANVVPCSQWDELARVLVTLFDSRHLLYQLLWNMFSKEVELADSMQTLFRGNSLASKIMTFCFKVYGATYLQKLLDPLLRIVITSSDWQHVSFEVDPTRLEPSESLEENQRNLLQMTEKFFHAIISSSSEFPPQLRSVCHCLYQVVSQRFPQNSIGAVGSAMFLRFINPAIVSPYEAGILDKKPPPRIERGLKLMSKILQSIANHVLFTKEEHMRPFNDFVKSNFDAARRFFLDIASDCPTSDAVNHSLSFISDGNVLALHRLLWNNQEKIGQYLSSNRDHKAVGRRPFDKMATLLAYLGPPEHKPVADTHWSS

Binder | binding result [2] | also measured
B1 | – | stoichiometry N [1]: 2
B2 | binds | –
B3 | binds | –
B4 | – | binding result [3]: binds
